From publication PMC3206940 (PLoS ONE, 2011)

B1: HCoV-OC43 3C-like protease (3CL^pro) (enzyme)
chain: SGIVKMVNPTSKVEPCVVSVTYGNMTLNGLWLDDKVYCPRHVICSASDMTNPDYTNLLCRVTSSDFTVLFDRLSLTVMSYQMRGCMLVLTVTLQNSRTPKYTFGVVKPGETFTVLAAYNGKPQGAFHVTMRSSYTIKGSFLCGSCGSVGYVIMGDCVKFVYMHQLELSTGCHTGTDFNGDFYGPYKDAQVVQLPIQDYIQSVNFLAWLYAAILNNCNWFIQSDKCSVEDFNVWALSNGFSQVKSDLVIDALASMTGVSLETLLAAIKRLKNGFQGRQIMGSCSFEDELTPSDVYQQLAGIKLQ
notes: also called 3CL^pro from HCoV-OC43; main protease; not shown: His6-SUMO or His6-MBP, N-terminal, cleaved
B2: SARS-CoV 3C-like protease (3CL^pro) (enzyme)
chain: SGFRKMAFPSGKVEGCMVQVTCGTTTLNGLWLDDTVYCPRHVICTAEDMLNPNYEDLLIRKSNHSFLVQAGNVQLRVIGHSMQNCLLRLKVDTSNPKTPKYKFVRIQPGQTFSVLACYNGSPSGVYQCAMRPNHTIKGSFLNGSCGSVGFNIDYDCVSFCYMHHMELPTGVHAGTDLEGKFYGPFVDRQTAQAAGTDTTITLNVLAWLYAAVINGDRWFLNRFTTTLNDFNLVAMKYNYEPLTQDHVDILGPLSAQTGIAVLDMCAALKELLQNGMNGRTILGSTILEDEFTPFDVVRQCSGVTFQ
notes: also called 3CL^pro from SARS-CoV; main protease

Target: the molecule itself
Test: SEC

Protein | stoichiometry N
B1 | 2
B2 | 2
